Experimental data reported in patent publication US20050221433A1 (Regeneron, published 2005).

T1: recombinant human IL-18 (human, UniProt Q14116 37-193)
T1 sequence (looked up): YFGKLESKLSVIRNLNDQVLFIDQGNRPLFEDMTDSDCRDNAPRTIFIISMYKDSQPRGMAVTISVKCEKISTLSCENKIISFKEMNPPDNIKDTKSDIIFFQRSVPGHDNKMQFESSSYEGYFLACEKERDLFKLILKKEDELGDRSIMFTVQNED

B1: hIL18BPa (58-192) (C129S).His (receptor)
chain: AAKQCPALEVTWPEVEVPLNGTLSLSCVACSRFPNFSILYWLGNGSFIEHLPGRLWEGSTSRERGSTGTQLSKALVLEQLTPALHSTNFSCVLVDPEQVVQRHVVLAQLWAGLRATLPPTQEALPSSHSSPQQQGHHHHHHHH
B2: hIL18BPa (1-192) (C49S, C129S).His (receptor)
chain: TPVSQTTTAATASVRSTKDPSPSQPPVFPAAKQCPALEVTWPEVEVPLNGTLSLSCVACSRFPNFSILYWLGNGSFIEHLPGRLWEGSTSRERGSTGTQLSKALVLEQLTPALHSTNFSCVLVDPEQVVQRHVVLAQLWAGLRATLPPTQEALPSSHSSPQQQGTGHHHHHHHH
B3: hIL18BPa (72-192).TG.hFc (Fc fusion)
chain: VEVPLNGTLSLSCVACSRFPNFSILYWLGNGSFIEHLPGRLWEGSTSRERGSTGTQLCKALVLEQLTPALHSTNFSCVLVDPEQVVQRHVVLAQLWAGLRATLPPTQEALPSSHSSPQQQGTG
notes: not shown: hFc (human Fc)
B4: hIL18BPa (1-181) (C49S, C129S).His (receptor)
chain: TPVSQTTTAATASVRSTKDPSPSQPPVFPAAKQCPALEVTWPEVEVPLNGTLSLSCVACSRFPNFSILYWLGNGSFIEHLPGRLWEGSTSRERGSTGTQLSKALVLEQLTPALHSTNFSCVLVDPEQVVQRHVVLAQLWAGLRATLPPTQEALTGHHHHHHHH

Tests used:
recombinant human IL-18 [1] = target: T1, recombinant human IL-18; assay: cell-based or functional assay
recombinant human IL-18 [2] = target: T1, recombinant human IL-18; assay: printed in the IC50 (M) column of Table 2 (HEK293/NFkB-luciferase hIL-18 inhibition bioassay, CHO transient supernatant)
Source text: hIL-18 Inhibition. The HEK293/NFkB-luciferase bioassay is used to determine the ability of the IL-18-specific polypeptides of the invention to block the activity of human IL-18 (hIL-18). Human embryonic kidney 293, HEK293, cells, were transfected with an NFκB-luciferase reporter plasmid. By placing an NFκB promoter element upstream of the luciferase gene one can monitor NFκB activity in cells. Because IL-18 signaling is mediated by NFκB, when cells containing the 293/NFκB luciferase construct and the IL-18 receptors are stimulated with hIL-18, the luciferase gene is expressed and luciferase activity can be detected in cell lysates. A stable, transfected, cell line, HEK293/D9, was selected for good response to IL-1 as detected by luciferase activity. This line was transfected with the human IL-18Rα (IL-IRrp) and IL-18Rβ (IL1RAcPL) receptors and stable cell lines that responded to IL-18 with a strong luciferase signal were isolated. These cells are called hIL-18-NFκB-luciferase cells.
For the assay, hIL-18-NFκB-Luciferase cells were suspended at 1.25×10⁵ cells per ml in medium and 0.08 ml of cells plated (10,000 cells per well) into the wells of a 96 well tissue culture plate. […] Plates were incubated at room temperature for ˜10 minutes and then read on a Victor multilabel counter (Luminescence 1 sec/well).

Row | Binder | IC50 (M), HEK293/NFkB-luciferase bioassay (recombinant human IL-18 [1]) | binding result (recombinant human IL-18 [2])
1 | B1 | 3.9e-11 M | 
2 | B2 | 8.59e-11 M | 
3 | B3 |  | no binding
4 | B4 | 1.23e-10 M | 
